In publication PMC3337772:

Substrate: NCCc1ccc(O)c(O)c1
Test: [3H]DA uptake kinetics
Format: cell-based, Rattus norvegicus

B1: dopamine transporter (DAT; rDAT) (Rattus norvegicus) (protein)
chain: MSKSKCSVGPMSSVVAPAKESNAVGPREVELILVKEQNGVQLTNSTLINPPQTPVEAQERETWSKKIDFLLSVIGFAVDLANVWRFPYLCYKNGGGAFLVPYLLFMVIAGMPLFYMELALGQFNREGAAGVWKICPVLKGVGFTVILISFYVGFFYNVIIAWALHYFFSSFTMDLPWIHCNNTWNSPNCSDAHASNSSDGLGLNDTFGTTPAAEYFERGVLHLHQSRGIDDLGPPRWQLTACLVLVIVLLYFSLWKGVKTSGKVVWITATMPYVVLTALLLRGVTLPGAMDGIRAYLSVDFYRLCEASVWIDAATQVCFSLGVGFGVLIAFSSYNKFTNNCYRDAIITTSINSLTSFSSGFVVFSFLGYMAQKHNVPIRDVATDGPGLIFIIYPEAIATLPLSSAWAAVFFLMLLTLGIDSAMGGMESVITGLVDEFQLLHRHRELFTLGIVLATFLLSLFCVTNGGIYVFTLLDHFAAGTSILFGVLIEAIGVAWFYGVQQFSDDIKQMTGQRPNLYWRLCWKLVSPCFLLYVVVVSIVTFRPPHYGAYIFPDWANALGWIIATSSMAMVPIYATYKFCSLPGSFREKLAYAITPEKDHQLVDRGEVRQFTLRHWLLL
- Km: 1.50 ± 0.10 µM
